Measurements from publication PMC8517388.
Where two headings read alike, the source gives them in different places.

Tests used:
[1] = target: TROP-2 ectodomain expressed in HEK-293T cells (TROP-2-ECD-293T) (human) (UniProt P09758); assay: crystal structure
[2] = target: TROP-2 ectodomain expressed in HEK-293T cells (TROP-2-ECD-293T) (human) (UniProt P09758); assay: crystal structure; remark: listed apart in the source
[3] = target: TROP-2 ectodomain expressed in insect cells (TROP-2-ECD-insect) (human) (UniProt P09758); assay: crystal structure
[4] = target: TROP-2 ectodomain expressed in insect cells (TROP-2-ECD-insect) (human) (UniProt P09758); assay: crystal structure; remark: listed apart in the source
[5] = target: TROP-2 ectodomain expressed in insect cells (TROP-2-ECD-insect) (human) (UniProt P09758); assay: ITC
[6] = BS3 cross-linking, SDS-PAGE; details: glycan changed form; control: TROP-2-ECD from HEK-293T cells

For “TROP-2 ectodomain expressed in HEK-293T cells (TROP-2-ECD-293T) (from UniProt P09758 27-274) (domain or fragment)”, the stoichiometry N [1] was 2 and the stoichiometry N [2] was 4.

Work on “TROP-2 ectodomain expressed in insect cells (TROP-2-ECD-insect) (from UniProt P09758 27-274) (domain or fragment)” yielded a stoichiometry N [3] of 2, a stoichiometry N [4] of 4 and a Kd [5] of 402 µM. It also gave a dH [5] of 9.14 kcal/mol.

B1: TROP-2 (trophoblast cell surface antigen 2) ectodomain, TROP-2-ECD: expression in insect cells (protein)
parent chain: MARGPGLAPPPLRLPLLLLVLAAVTGHTAAQDNCTCPTNKMTVCSPDGPGGRCQCRALGSGMAVDCSTLTSKCLLLKARMSAPKNARTLVRPSEHALVDNDGLYDPDCDPEGRFKARQCNQTSVCWCVNSVGVRRTDKGDLSLRCDELVRTHHILIDLRHRPTAGAFNHSDLDAELRRLFRERYRLHPKFVAAVHYEQPTIQIELRQNTSQKAAGDVDIGDAAYYFERDIKGESLFQGRGGLDLRVRGEPLQVERTLIYYLDEIPPKFSMKRLTAGLIAVIVVVVVALVAGMAVLVITNRRKSGKYKKVEIKELGELRKEPSL
With B1 the oligomerisation [6] was “no change”.
